Experimental data as given in article PMC8385403.
Blank lines part the entries; values can stand above or below the substance they belong to.

Tests used:
[1] = molecular target: Rod-B; experiment: co-sedimentation; filament disassembly assay without His-Aurora-B; Rod-B proteins in kinase buffer (20 mM Tris pH 7.5, 10 mM MgCl2, 1 mM DTT, 50 μM ATP), 60 min at 30 °C, then high-speed centrifugation; filaments to nonfilamentous fraction
[2] = molecular target: His-survivin (UniProt O15392); experiment: pull-down (quantification of Coomassie-stained SDS-PAGE); conditions: mean ± SEM of three independent experiments; parent: est. 1.0; read off a plot
[3] = molecular target: Rod-B phosphorylated by His-Aurora-B; experiment: co-sedimentation; filament disassembly assay with His-Aurora-B; Rod-B proteins with recombinant His-Aurora-B in kinase buffer (20 mM Tris pH 7.5, 10 mM MgCl2, 1 mM DTT, 50 μM ATP), 60 min at 30 °C, then high-speed centrifugation; filaments to nonfilamentous fraction
[4] = molecular target: Rod-B^T1847A; experiment: as above
[5] = molecular target: Rod-B^T1847A; experiment: co-sedimentation; filament disassembly assay without His-Aurora-B; Rod-B proteins in kinase buffer (20 mM Tris pH 7.5, 10 mM MgCl2, 1 mM DTT, 50 μM ATP), 60 min at 30 °C, then high-speed centrifugation; filaments to nonfilamentous fraction
[6] = molecular target: His-survivin (UniProt O15392); experiment: pull-down; direct pull-down; His-survivin proteins (40-45 μg) held on Ni2+-NTA beads, Rod-B proteins (40-45 μg) added; Buffer B: 20 mM Tris-HCl pH 8, 275 mM NaCl, 5% glycerol, 1% NP-40, 30 mM imidazole; 4 °C; eluted with 250 mM imidazole; Coomassie-stained SDS-PAGE

Rod-B, sequence (P35580 whole entry): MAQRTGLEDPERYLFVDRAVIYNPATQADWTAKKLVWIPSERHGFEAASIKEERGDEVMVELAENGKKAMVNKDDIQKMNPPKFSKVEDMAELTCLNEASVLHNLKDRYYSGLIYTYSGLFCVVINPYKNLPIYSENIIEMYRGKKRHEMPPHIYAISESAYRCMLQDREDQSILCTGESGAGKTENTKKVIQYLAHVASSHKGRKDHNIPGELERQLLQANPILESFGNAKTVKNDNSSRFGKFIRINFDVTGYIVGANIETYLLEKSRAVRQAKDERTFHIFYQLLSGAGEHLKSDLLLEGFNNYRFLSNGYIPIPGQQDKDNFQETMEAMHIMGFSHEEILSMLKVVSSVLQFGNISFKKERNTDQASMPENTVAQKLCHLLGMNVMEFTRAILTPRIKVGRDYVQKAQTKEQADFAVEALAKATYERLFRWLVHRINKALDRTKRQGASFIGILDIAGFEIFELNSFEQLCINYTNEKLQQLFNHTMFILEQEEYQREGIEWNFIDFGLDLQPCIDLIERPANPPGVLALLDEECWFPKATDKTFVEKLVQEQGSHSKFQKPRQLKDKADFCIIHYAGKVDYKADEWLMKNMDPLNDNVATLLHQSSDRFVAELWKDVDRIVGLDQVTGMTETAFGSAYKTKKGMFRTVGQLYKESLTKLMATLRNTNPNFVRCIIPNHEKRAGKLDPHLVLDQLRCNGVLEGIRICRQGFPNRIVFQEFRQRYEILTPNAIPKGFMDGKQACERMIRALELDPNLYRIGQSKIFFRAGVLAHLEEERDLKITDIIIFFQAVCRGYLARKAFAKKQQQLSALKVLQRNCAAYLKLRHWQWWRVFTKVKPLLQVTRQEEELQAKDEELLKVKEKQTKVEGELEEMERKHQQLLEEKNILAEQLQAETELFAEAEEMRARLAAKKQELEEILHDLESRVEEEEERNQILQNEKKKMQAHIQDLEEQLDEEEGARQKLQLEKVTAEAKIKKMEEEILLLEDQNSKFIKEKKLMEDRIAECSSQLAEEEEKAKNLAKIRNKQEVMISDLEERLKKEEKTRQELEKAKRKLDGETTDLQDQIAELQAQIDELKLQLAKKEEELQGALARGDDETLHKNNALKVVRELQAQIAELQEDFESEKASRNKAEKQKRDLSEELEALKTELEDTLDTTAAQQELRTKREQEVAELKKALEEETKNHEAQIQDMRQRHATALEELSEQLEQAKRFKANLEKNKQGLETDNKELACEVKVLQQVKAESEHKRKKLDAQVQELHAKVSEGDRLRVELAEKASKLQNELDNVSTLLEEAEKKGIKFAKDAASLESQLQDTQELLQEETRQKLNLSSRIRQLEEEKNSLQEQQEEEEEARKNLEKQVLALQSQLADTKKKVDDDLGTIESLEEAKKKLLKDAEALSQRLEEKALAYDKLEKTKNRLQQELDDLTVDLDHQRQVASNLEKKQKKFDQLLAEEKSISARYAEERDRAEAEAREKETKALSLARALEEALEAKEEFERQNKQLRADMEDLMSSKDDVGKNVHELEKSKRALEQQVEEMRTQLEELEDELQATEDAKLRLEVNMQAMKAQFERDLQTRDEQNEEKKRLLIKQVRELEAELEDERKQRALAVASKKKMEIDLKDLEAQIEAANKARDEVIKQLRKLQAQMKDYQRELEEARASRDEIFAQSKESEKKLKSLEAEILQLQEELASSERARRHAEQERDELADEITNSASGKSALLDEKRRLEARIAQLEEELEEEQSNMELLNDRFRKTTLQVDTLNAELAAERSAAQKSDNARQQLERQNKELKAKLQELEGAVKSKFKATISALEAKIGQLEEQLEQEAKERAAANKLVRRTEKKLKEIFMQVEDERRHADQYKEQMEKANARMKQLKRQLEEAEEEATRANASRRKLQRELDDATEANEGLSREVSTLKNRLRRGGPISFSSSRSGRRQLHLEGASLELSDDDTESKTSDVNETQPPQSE
Rod-B phosphorylated by His-Aurora-B, sequence (P35580 whole entry): as above

Substance: Rod-B T1847A
ratio to parent [2]: 1.1

Substance: Rod-B^T1847A (domain or fragment)
percent in the nonfilamentous fraction [4]: 36.8% | percent in the nonfilamentous fraction [5]: 34%

Substance: Rod-B^T1847D (domain or fragment)
percent reduction of binding to survivin relative to Rod-B [6]: 80%

Other lines, results leading:

percent in the nonfilamentous fraction [1]: 28%
Substance: Rod-B (domain or fragment)

percent in the nonfilamentous fraction [3]: 42%
Substance: Rod-B phosphorylated by His-Aurora-B (domain or fragment)
